The results in this text go back to patent publication US20130344070A1.

For this assay, the target named is human CCR2 (CC-Chemokine Receptor 2) (human) (UniProt P41597). The assay can be described thus: cell-based or functional assay.
Sequence of human CCR2 (CC-Chemokine Receptor 2) (human) (P41597 whole entry): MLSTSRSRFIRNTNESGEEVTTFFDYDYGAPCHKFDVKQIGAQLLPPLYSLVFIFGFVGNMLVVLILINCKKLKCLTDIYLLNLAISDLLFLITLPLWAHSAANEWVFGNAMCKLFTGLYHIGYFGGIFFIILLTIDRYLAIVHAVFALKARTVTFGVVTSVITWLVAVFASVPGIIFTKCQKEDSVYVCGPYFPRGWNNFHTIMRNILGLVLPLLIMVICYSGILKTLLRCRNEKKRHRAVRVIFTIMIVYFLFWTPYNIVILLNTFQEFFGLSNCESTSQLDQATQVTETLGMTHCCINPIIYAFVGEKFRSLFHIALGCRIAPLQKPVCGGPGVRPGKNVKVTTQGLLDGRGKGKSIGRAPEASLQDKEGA

B1: MLN1202 (Takeda) (antibody, INN chains, looked up, V domains shown)
VH: EVQLVESGGGLVKPGGSLRLSCAASGFTFSAYAMNWVRQAPGKGLEWVGRIRTKNNNYATYYADSVKDRFTISRDDSKNTLYLQMNSLKTEDTAVYYCTTFYGNGVWGQGTLVTVSS
VL: DVVMTQSPLSLPVTLGQPASISCKSSQSLLDSDGKTFLNWFQQRPGQSPRRLIYLVSKLDSGVPDRFSGSGSGTDFTLKISRVEAEDVGVYYCWQGTHFPYTFGQGTRLEIK
With B1, the IC50 in calcium flux assay using human THP-1 cells, ligand MCP-1 (2.5 nM) was determined as 0.25 nM; the IC50 in calcium flux assay using human THP-1 cells, ligand MCP-3 (22 nM) was 0.11 nM; the IC50 in calcium flux assay using human THP-1 cells, ligand MCP-5 (0.43 nM) worked out at 0.18 nM; the IC50 in chemotaxis assay using human THP-1 cells, ligand MCP-1 (3 nM) came out at 0.31 nM. This molecule also registered an IC50 in chemotaxis assay using human THP-1 cells, ligand MCP-2 (6.7 nM) of 0.46 nM; an IC50 in chemotaxis assay using human THP-1 cells, ligand MCP-3 (1.1 nM) of 1.83 nM; an IC50 in chemotaxis assay using human THP-1 cells, ligand MCP-4 (35 nM) of 0.84 nM; an IC50 in chemotaxis assay using human THP-1 cells, ligand MCP-5 (0.65 nM) of 0.37 nM. The IC50 on MCP-1 induced THP-1 cell migration was 0.309 nM, the IC50 on MCP-2 induced THP-1 cell migration turned out to be 0.459 nM, the IC50 on MCP-3 induced THP-1 cell migration was found to be 1.83 nM and the IC50 on MCP-4 induced THP-1 cell migration worked out at 0.843 nM. Also, the IC50 on mouse MCP-5 induced THP-1 cell migration is 0.368 nM.
